The term IC50 denotes the midpoint of a concentration-inhibition curve. Read a high IC50 as a need for much substance.

From US20080027145A1, “Therapeutic Molecules and Methods for Generating and/or Selecting Same” (priority 2004, published 2008) come the findings set out here.

One experiment addresses T1, Bcl-xL ΔC24 (Homo sapiens, UniProt Q07817).
T1 construct: Human Bcl-xL (Acc. no. NP_612815; residues 1-209); GST (N, cleaved yes); made in house
The experiment in a line: Bcl-xL ΔC24. Here is the method:
(§1) Table printed on a drawing sheet, FIGURE 2A
Head of the field: Bcl-xL ΔC24
(§2) The patent's description of the figure: FIG. 2 is a graphical representation showing pro-apoptotic BH3-only and pro-survival Bcl-2-like proteins have distinctive interactions. (A) Using competitive binding assays, the IC50 (nM) for the indicated interactions were determined. The results shown are from representative experiments; the variation observed in multiple experiments was less than two-fold (using different chips or protein batches). (B) Relative binding affinities of interactions (tabulated in A) were inversely plotted. The BH3 binding profiles of pro-survival proteins are shown. In (C), the sequences of human Bcl-2 (residues 93-202), human Bcl-xL (86-195), human Bcl-w (42-151), mouse Mcl-1 (190-300) and mouse A1 (33-148) that form their BH3 binding grooves (α-helices 2 to 8; Hinds et al., EMBO J 22:1497-1507, 2003) were compared and presented as a phylogenetic tree. Color reproductions are available from the patentees on request.
(§3) First copying reader's note: The table itself prints no unit; IC50 (nM) is printed only on the axis of panel B of the same figure, which plots the same values.
Where the first naming reader finds the target: head: Bcl-xL ΔC24

A further experiment concerns the target T2, Bcl-w ΔC29 (Homo sapiens, UniProt Q92843, A128E/C29S).
T2 construct: human Bcl-w (Acc. no. NP_004041; residues 1-164; C29S A128E); made in house
The experiment in a line: Bcl-w ΔC29. How it is done:
as §1, §2, §3

A further experiment addresses T3, Bcl-2 ΔC22 (Homo sapiens, UniProt P10415).
T3 construct: Human Bcl-2 (Acc. no. NP_000624; residues 1-217); made in house
The experiment in a line: Bcl-2 ΔC22. How it is done: as §1
Head of the field: Bcl-2 ΔC22
as §2, with “In (C), the sequences of human Bcl-2 (residues 93-202), human Bcl-xL (86-195), human Bcl-w (42-151), mouse Mcl-1 (190-300) and mouse A1 (33-148) that form their BH3 binding grooves (α-helices 2 to 8; Hinds et al., EMBO J 22:1497-1507, 2003) were compared and presented as a phylogenetic tree.” left out
as §3
Where the first naming reader finds the target: head: Bcl-2 ΔC22

The target in a further experiment is T4, A1 ΔC20 (Mus musculus, UniProt Q07440).
T4 construct: mouse A1 (Acc. no. NP_033872; residues 1-152); GST (N, cleaved yes); made in house
The experiment in a line: A1 ΔC20. Here is the method: as §1
Head of the field: A1 ΔC20
as §2, §3
Where the first naming reader finds the target: head: A1 ΔC20

The target in a further experiment is T5, FLAG-tagged Mcl-1 (Mus musculus, UniProt P97287).
T5 construct: expressed in transfected cells; host or cells: HEK293T
The experiment in a line: Co-immunoprecipitation in transfected 293T cells. The experiment is classed as binding. Particulars: tagged full-length proteins. From the text: (§4) Equivalent ^35S-labeled lysates harvested from 293T cells were immunoprecipitated with antibodies to the HA, FLAG (FL) or control (C) tags.
(§5) The maintenance, transfection and metabolic labeling of the human embryonic kidney (HEK) 293T cells with ^35S-methionine/cysteine (NEN) as well as co-immunoprecipitation have been described (Huang et al., Supra; Moriishi et al., Proc Natl Acad Sci USA 96:9683-9688, 1999; O'Conner et al., Supra). Briefly, equivalent TCA-precipitable lysates were immunoprecipiated using the mouse monoclonal antibodies to HA (HA.11; CRP), FLAG (M2; Sigma) and control Glu-Glu (CRP) tags. The proteins were resolved by SDS:PAGE, transferred onto nitrocellulose membranes and detected by fluorography (Amplify; Amersham Biosciences).
(§6) To verify the in vitro findings, interactions of selected pairs of the full-length N-terminally tagged proteins were investigated in mammalian cells by co-immunoprecipitation. […] The cells were metabolically labeled with ^35S-methionine/cysteine to permit semi-quantitative assessment of any interaction between co-associating radiolabeled proteins.
(§7) To verify the in vitro findings, selected pairs of the full-length N-terminally tagged proteins associated in mammalian cells were investigated by co-immunoprecipitation. […] The cells were metabolically labeled with ^35S-methionine/cysteine to permit semi-quantitative assessment of any interaction between the labeled proteins or interaction was gauged by the more sensitive western blotting.

Another experiment deals with T6, FLAG-tagged Bcl-xL (Homo sapiens, UniProt Q07817).
T6 construct: expressed in transfected cells; host or cells: HEK293T
The experiment in a line: Co-immunoprecipitation in transfected 293T cells. The class given is binding. The following applies: tagged full-length proteins.
Source text: as §4, §5, §6, §7

The test system of experiment [1] is mouse embryonic fibroblasts (MEFs). The experiment in a line: Killing of MEFs after retroviral expression, viability 24 hours after infection. The experiment is classed as cell-based. Particulars: retroviral expression, 24 hours after infection. How it is done: FIG. 7 is a graphical representation showing that BH3-only proteins that bind selective targets have weak killing activity. (A) The affinities of BH3-only peptides for pro-survival proteins (tabulated in FIG. 3A) were inversely plotted to facilitate comparison of the patterns of BH3 binding. […] Immortalized 3T9 MEFs were infected with retroviruses expressing only GFP (control), or one of the BH3-only proteins and GFP. The viability of the infected (GFP^+ve) cells was determined by PI exclusion 24 hours after infection. The histograms represent means±1SD of at least 3 experiments. […] The filter was probed with a rat monoclonal anti-FLAG antibody. *Degradation product of Mcl-1. […] Viability of MEFs infected with retroviruses encoding the indicated proteins (GFP^+ve) was analyzed 24 hours after infection. The histograms represent means±1SD of at least 3 experiments. (E) Long-term survival of MEFs infected with BH3 expressing retroviruses. One hundred retrovirally-infected cells were plated and the absolute number of GFP^+ve colonies formed after 6 days scored. […] The data represent the average number of GFP^+ve colonies formed±1SD from at least 3 experiments. To assess the biological relevance of the selective binding, retroviral delivery was used to compare the ability of different BH3-only proteins to kill wild-type mouse embryonic fibroblasts (MEFs). To monitor expression of the introduced gene, a vector (pMIG) in which its expression is coupled via an internal ribosomal entry site (IRES) to that of green fluorescent protein (GFP) was used (Van Parijs et al., Immunity 11:281-288, 1999). The cells were efficiently infected (>90%) and the introduced BH3-only proteins were comparably expressed. Viability of the infected (GFP^+ve) cells was scored 24 hours after infection (FIGS. 7A, 7B) and in long-term colony assays (FIG. 7E). […] Thus, the neutralization of Mcl-1 by Noxa should be complemented by co-expression of a BadBH3 to neutralize Bcl-2 and Bcl-xL in MEFs (FIG. 8A).

In another experiment the target is T7, Mcl-1 ΔN151 ΔC23 (Mus musculus, UniProt P97287).
T7 construct: mouse Mcl-1 (Acc. no. NP_031588; residues 152-308); GST (N, cleaved yes); made in house
The experiment in a line: Mcl-1 ΔN151 ΔC23. Here is the method: as §1
Head of the field: Mcl-1 ΔN151 ΔC23
as §2, §3
Where the first naming reader finds the target: head: Mcl-1 ΔN151 ΔC23

Experiment [2] relates to mouse embryonic fibroblasts (MEFs). The experiment in a line: Long-term colony assay of retrovirally infected MEFs. The experiment is classed as cell-based. The following applies: colonies after 6 days. Here is the method: FIG. 7 is a graphical representation showing that BH3-only proteins that bind selective targets have weak killing activity. (A) The affinities of BH3-only peptides for pro-survival proteins (tabulated in FIG. 3A) were inversely plotted to facilitate comparison of the patterns of BH3 binding. […] Immortalized 3T9 MEFs were infected with retroviruses expressing only GFP (control), or one of the BH3-only proteins and GFP. The viability of the infected (GFP^+ve) cells was determined by PI exclusion 24 hours after infection. The histograms represent means±1SD of at least 3 experiments. […] The filter was probed with a rat monoclonal anti-FLAG antibody. *Degradation product of Mcl-1. […] Viability of MEFs infected with retroviruses encoding the indicated proteins (GFP^+ve) was analyzed 24 hours after infection. The histograms represent means±1SD of at least 3 experiments. (E) Long-term survival of MEFs infected with BH3 expressing retroviruses. One hundred retrovirally-infected cells were plated and the absolute number of GFP^+ve colonies formed after 6 days scored. […] The data represent the average number of GFP^+ve colonies formed±1SD from at least 3 experiments. […] Viability of the infected (GFP^+ve) cells was scored 24 hours after infection (FIGS. 7A, 7B) and in long-term colony assays (FIG. 7E).

T5 sequence (P97287 whole entry): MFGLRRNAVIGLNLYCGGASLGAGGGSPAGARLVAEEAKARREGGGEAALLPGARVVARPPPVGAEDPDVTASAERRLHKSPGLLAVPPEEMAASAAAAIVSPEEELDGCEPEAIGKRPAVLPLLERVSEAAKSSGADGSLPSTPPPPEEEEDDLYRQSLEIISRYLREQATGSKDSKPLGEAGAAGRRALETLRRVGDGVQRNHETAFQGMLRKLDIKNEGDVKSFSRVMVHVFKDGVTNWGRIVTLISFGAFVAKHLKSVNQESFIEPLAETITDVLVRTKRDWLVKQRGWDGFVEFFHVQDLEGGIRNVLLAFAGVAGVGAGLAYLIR
T4 sequence (Q07440 1-152, stated change not applied): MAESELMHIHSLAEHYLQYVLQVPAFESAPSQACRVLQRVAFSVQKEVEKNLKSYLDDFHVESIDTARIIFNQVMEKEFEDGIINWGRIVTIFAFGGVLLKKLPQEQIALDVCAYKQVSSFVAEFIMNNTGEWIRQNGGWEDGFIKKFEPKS
T6 sequence (Q07817 whole entry): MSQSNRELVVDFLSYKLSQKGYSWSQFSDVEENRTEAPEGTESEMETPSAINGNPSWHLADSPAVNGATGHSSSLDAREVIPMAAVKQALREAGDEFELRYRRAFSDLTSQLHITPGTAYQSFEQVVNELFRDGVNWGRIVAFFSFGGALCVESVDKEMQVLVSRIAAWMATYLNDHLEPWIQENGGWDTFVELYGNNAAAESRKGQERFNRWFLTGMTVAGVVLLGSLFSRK
T3 sequence (P10415 1-217, stated change not applied): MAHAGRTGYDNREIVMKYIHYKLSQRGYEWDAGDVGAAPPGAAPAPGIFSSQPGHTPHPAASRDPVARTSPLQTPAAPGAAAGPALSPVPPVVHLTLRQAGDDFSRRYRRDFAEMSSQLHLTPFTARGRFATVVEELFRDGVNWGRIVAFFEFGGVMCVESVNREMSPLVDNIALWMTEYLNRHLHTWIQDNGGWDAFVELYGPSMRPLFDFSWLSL
T7 sequence (P97287 152-308, stated change not applied): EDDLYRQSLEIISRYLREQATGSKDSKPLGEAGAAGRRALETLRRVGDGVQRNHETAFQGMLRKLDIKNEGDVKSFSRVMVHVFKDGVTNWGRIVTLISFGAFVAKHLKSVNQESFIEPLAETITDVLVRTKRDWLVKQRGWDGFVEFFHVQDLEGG
T1 sequence (Q07817 1-209, stated change not applied): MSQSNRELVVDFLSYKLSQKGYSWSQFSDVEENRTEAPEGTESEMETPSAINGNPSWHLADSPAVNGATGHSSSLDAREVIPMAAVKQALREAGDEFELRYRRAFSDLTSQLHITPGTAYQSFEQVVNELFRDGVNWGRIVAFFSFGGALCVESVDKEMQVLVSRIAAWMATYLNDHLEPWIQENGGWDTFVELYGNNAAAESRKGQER
T2 sequence (Q92843 1-164 C29S/A128E): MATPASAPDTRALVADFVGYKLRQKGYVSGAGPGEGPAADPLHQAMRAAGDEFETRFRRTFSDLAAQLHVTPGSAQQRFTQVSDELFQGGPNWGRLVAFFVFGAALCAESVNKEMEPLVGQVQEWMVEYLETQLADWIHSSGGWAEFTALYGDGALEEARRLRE

For “Hrk: BH3-only protein Hrk expressed from retrovirus in MEFs”, the IC50 with Bcl-xL ΔC24 was 3.7 nM; with Bcl-w ΔC29 it was 49 nM; in the experiment with Bcl-2 ΔC22, 320 nM; with A1 ΔC20 it was 46 nM.

On to “Noxa m3: Noxa BH3 with K35E and F32I expressed in cells (Bims NoxaBH3 m3 in FIG. 9D) (PAELEVECATQLRRIGDELNFRQKLL)”, for which, in the experiment with FLAG-tagged Mcl-1, the “interaction with Mcl-1 by co-immunoprecipitation” value is “binds”. Further, in the experiment with FLAG-tagged Bcl-xL, the “interaction with Bcl-xL by co-immunoprecipitation” value was “bound”. In addition, the “killing of MEFs” value in experiment [1] is listed as “more potent killer than wild-type Noxa”.

As for “Puma: full-length human BH3-only protein Puma expressed in cells [listing 1 of 2 here]”, the results for the IC50 with Mcl-1 ΔN151 ΔC23 and with A1 ΔC20 were 5 nM and 5.7 nM, respectively.

“Puma: full-length human BH3-only protein Puma expressed in cells [listing 2 of 2 here]”: in experiment [2], the “long-term survival, GFP+ve colonies” value was “failed to generate colonies”. The “interaction with Mcl-1 by co-immunoprecipitation” value with FLAG-tagged Mcl-1 is on record as “well”. In addition, the “killing of MEFs” value in experiment [1] is “soon died”.
